Test results as given in patent publication US20200347151A1 (CRAGE MEDICAL, published 2020).

Assays:
human FAPα_His [1] = target: T1, human FAPα_His (human, UniProt Q12884 26-760); test: Biacore, scFv; 8E3, human FAPα
T1 construct: Fusion protein expressed in 293F cells and purified on a nickel column; also called huFAP; recombinant huFAPα

human FAPα_His [2] = target: T1, human FAPα_His; test: Biacore, scFv; reference is parent antibody 10A4
mouse FAPα_His = target: T2, mouse FAPα_His (mouse, UniProt P97321 26-761); test: Biacore, scFv; 8E3, murine FAP
T2 construct: Fusion protein expressed in 293F cells and purified on a nickel column; also called mFAP
T2 sequence (P97321 other isoform, or with tags, fused parts or gaps limits assumed): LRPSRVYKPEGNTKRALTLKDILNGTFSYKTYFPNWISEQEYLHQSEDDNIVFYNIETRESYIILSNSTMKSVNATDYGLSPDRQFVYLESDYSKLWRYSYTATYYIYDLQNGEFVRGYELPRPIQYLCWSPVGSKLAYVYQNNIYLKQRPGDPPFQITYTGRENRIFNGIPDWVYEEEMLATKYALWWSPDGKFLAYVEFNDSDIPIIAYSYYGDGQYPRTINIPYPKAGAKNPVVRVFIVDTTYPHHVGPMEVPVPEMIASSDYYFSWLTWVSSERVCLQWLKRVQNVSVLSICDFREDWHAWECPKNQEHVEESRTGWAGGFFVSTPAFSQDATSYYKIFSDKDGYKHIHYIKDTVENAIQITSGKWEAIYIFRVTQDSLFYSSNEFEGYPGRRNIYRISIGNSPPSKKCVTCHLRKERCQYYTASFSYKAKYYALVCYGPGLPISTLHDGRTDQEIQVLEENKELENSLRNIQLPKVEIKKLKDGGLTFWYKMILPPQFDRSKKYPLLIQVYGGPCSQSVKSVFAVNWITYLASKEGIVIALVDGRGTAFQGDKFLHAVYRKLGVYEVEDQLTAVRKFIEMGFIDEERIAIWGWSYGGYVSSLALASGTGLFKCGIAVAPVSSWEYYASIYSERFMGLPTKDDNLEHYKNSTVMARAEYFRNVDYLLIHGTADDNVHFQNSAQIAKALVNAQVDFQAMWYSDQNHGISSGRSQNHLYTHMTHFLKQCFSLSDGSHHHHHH

T1 sequence (Q12884 other isoform, or with tags, fused parts or gaps limits assumed): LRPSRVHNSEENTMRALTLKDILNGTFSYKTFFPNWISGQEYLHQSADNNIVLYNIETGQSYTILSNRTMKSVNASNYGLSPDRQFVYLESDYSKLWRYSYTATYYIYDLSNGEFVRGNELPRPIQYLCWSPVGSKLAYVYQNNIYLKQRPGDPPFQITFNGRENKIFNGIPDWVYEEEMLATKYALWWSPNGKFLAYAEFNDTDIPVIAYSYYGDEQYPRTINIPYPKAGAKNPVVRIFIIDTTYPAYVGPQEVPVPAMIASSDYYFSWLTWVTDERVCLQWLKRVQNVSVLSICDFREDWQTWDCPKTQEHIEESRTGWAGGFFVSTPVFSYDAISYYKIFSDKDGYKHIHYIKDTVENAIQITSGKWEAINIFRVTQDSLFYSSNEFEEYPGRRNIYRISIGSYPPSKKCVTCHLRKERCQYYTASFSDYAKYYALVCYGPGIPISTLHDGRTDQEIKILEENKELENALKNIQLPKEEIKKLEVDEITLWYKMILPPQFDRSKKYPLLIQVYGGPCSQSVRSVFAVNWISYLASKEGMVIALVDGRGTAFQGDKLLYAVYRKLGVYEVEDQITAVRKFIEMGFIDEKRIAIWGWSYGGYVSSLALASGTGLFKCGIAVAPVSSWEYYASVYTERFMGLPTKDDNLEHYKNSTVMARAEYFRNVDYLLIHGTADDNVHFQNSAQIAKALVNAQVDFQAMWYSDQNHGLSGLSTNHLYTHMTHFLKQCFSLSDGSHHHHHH

B1: antibody 8E3 (scFv), affinity-matured from 10A4 (scFv)
scFv: QVQLVQSGAEVKKPGSSVKVSCKASGGTFSSYAISWVRQAPGQGLEWMGGIIPIFGTANYAQKFQGRVTITADKSTSTAYMELSSLRSEDTAVYYCARDAADRDYWGQGTTVTVSSGGGGSGGGGSGGGGSDIVMTQSPLSLPVTPGEPASISCRSSQSLLHPNGFNHLYWYLQKPGQSPQLLIYVGGNRASGVPDRFSGSGSGTDFTLKISRVEAEDVGVYYCQQRNNKNRTFGQGTKVEIKR
notes: also called hu8E3
For B1, the Kd (human FAPα_His [1]) was 81.6 nM, the “fold affinity against 10A4” value (human FAPα_His [2]) was 2.4 times and the Kd (mouse FAPα_His) was 267 nM.
